From publication PMC9482650, “Quantitative fragmentomics allow affinity mapping of interactomes” (Nature Communications, 2022)

Key:
Assay in all cases: holdup assay
Design in all cases: key: below the threshold = too weak to quantify, mostly under pKd 3.1 to 4
[1] = target: PTPN3, P26045
[2] = target: T1, APBA1_2, Q02410
T1 sequence (Q02410 742-832, limits assumed, looked up): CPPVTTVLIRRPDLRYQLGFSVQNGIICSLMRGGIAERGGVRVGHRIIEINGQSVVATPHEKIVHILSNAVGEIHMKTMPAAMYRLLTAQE

[3] = target: FRMPD4, Q14CM0
Sequence of FRMPD4, Q14CM0 (Q14CM0 67-160): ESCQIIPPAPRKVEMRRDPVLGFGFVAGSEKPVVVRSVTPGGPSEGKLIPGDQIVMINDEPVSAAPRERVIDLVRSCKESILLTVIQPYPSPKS

[4] = target: PDZRN4_1, Q6ZMN7
Sequence of PDZRN4_1, Q6ZMN7 (Q6ZMN7 213-318): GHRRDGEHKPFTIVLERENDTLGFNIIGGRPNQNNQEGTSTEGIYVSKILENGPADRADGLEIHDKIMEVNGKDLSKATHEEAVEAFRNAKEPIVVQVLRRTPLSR

[5] = target: T2, FRMPD1, Q5SYB0
T2 sequence (Q5SYB0 52-145, limits assumed, looked up): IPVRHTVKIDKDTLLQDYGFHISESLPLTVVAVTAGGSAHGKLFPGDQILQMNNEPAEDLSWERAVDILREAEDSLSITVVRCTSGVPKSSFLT

[6] = target: Inadl_4, Q8NI35
Sequence of Inadl_4, Q8NI35 (Q8NI35 547-651): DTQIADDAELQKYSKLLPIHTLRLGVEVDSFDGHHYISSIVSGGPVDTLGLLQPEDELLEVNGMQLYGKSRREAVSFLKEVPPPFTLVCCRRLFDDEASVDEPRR

[7] = target: DLG2_3, Q15700
[8] = target: T3, GRIP1_5, Q9Y3R0
T3 sequence (Q9Y3R0 568-668, limits assumed, looked up): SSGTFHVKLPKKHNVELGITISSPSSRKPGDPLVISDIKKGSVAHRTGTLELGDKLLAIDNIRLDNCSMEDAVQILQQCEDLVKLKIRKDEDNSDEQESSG

[9] = target: T4, PARD3B_1, Q8TEW8
T4 sequence (Q8TEW8 196-299, limits assumed, looked up): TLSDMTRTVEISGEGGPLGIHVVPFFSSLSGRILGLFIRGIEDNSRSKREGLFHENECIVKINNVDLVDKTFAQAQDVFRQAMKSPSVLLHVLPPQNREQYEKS

[10] = target: T5, SHANK1, Q9Y566
T5 sequence (Q9Y566 658-767, limits assumed, looked up): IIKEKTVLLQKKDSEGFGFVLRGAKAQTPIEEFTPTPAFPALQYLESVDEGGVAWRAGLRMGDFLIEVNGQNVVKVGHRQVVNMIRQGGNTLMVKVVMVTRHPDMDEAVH

[11] = target: T6, LNX2_2, Q8N448
T6 sequence (Q8N448 334-432, limits assumed, looked up): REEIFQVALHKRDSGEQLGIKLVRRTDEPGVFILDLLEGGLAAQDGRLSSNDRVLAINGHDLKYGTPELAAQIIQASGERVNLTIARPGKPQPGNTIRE

[12] = target: T7, DFNB31_3, Q9P202
T7 sequence (Q9P202 811-907, limits assumed, looked up): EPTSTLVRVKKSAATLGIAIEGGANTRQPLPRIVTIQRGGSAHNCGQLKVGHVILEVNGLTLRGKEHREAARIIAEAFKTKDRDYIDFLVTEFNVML

[13] = target: MAGI3_2, Q5TCQ9
Sequence of MAGI3_2, Q5TCQ9 (Q5TCQ9 398-503): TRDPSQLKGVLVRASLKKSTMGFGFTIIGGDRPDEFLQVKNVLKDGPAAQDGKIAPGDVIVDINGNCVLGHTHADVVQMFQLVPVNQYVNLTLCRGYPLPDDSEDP

[14] = target: NHERF4_2, Q86UT5
Sequence of NHERF4_2, Q86UT5 (Q86UT5 220-308): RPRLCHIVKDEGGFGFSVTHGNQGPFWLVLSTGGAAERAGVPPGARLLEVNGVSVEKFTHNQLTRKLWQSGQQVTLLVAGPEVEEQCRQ

[15] = target: T8, SIPA1L2, Q9P2F8
T8 sequence (Q9P2F8 945-1036, limits assumed, looked up): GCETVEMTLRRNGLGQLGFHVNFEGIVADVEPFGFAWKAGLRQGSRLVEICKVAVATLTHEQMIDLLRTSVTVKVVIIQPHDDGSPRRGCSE

[16] = target: T9, MPDZ_5, O75970
T9 sequence (O75970 695-796, limits assumed, looked up): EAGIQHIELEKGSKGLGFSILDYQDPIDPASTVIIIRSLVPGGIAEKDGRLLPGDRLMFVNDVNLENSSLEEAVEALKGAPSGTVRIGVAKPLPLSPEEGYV

[17] = target: Inadl_1, Q8NI35
Sequence of Inadl_1, Q8NI35 (Q8NI35 113-229): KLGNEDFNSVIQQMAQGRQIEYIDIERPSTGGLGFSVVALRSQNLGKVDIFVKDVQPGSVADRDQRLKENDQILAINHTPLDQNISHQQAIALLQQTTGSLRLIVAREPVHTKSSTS

[18] = target: Inadl_6, Q8NI35
Sequence of Inadl_6, Q8NI35 (Q8NI35 1058-1167): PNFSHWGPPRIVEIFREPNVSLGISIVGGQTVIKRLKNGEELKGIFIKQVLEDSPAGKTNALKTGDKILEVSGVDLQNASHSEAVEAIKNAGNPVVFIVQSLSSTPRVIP

[19] = target: FRMPD3, Q5JV73
Sequence of FRMPD3, Q5JV73 (Q5JV73 12-100): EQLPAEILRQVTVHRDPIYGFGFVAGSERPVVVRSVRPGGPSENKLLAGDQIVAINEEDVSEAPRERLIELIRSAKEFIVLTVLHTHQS

[20] = target: PDLIM1, O00151
Sequence of PDLIM1, O00151 (O00151 1-87): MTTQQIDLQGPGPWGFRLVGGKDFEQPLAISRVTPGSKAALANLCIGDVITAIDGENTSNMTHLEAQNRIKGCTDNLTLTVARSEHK

[21] = target: T10, GRIP1_4, Q9Y3R0
T10 sequence (Q9Y3R0 467-571, limits assumed, looked up): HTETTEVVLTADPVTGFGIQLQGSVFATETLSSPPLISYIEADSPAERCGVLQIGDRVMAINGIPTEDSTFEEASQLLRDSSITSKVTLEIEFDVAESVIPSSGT

[22] = target: MAGI2_3, Q86UL8
Sequence of MAGI2_3, Q86UL8 (Q86UL8 600-682): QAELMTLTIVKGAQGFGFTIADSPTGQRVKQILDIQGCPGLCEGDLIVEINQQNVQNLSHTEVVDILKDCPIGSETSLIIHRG

[23] = target: Inadl_10, Q8NI35
Sequence of Inadl_10, Q8NI35 (Q8NI35 1673-1763): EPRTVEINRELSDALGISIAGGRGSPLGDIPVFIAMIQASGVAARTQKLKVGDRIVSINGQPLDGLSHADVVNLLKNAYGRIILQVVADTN

[24] = target: T11, PDZD7_3, Q9H5P4
T11 sequence (Q9H5P4 857-944, limits assumed, looked up): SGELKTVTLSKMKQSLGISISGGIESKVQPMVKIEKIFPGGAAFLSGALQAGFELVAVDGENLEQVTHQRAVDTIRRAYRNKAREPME

[25] = target: LNX1_3, Q8TBB1
Sequence of LNX1_3, Q8TBB1 (Q8TBB1 500-596): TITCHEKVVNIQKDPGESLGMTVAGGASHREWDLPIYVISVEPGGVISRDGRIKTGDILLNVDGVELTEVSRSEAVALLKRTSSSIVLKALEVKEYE

[26] = target: NOS1, P29475
Sequence of NOS1, P29475 (P29475 9-101): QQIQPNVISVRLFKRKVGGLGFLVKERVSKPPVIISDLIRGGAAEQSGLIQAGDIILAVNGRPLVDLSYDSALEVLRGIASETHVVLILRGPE

[27] = target: FRMPD2_1, Q68DX3
Sequence of FRMPD2_1, Q68DX3 (Q68DX3 770-861): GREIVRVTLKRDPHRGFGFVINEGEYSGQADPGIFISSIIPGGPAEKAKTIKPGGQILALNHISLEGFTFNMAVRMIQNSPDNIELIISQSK

[28] = plain residues with an end cap or a label only (N-terminal biotin on a linker: none)
[29] = plain residues with an end cap or a label only (N-terminal biotin on a linker: ttds)

Sequence of PTPN3, P26045 (P26045 505-587): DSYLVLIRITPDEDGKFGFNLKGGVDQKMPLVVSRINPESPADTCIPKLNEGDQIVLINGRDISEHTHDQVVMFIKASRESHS

B1: SARS-CoV2-E, P0DTC4 (peptide)
chain: NLNSSRVPDLLV
[1]; [28]
  pKd: below the threshold
[2]; [28]
  pKd: below the threshold
[3]; [28]
  pKd: 3.48
[4]; [28]
  pKd: below the threshold
[5]; [28]
  pKd: below the threshold
[6]; [28]
  pKd: below the threshold
[7]; [28]
  pKd: below the threshold
[8]; [28]
  pKd: below the threshold
[9]; [28]
  pKd: below the threshold
[10]; [28]
  pKd: below the threshold
[11]; [28]
  pKd: 4.46
[12]; [28]
  pKd: below the threshold
[13]; [28]
  pKd: below the threshold
[14]; [28]
  pKd: below the threshold
[15]; [28]
  pKd: below the threshold
[16]; [28]
  pKd: below the threshold
[17]; [28]
  pKd: below the threshold
[18]; [28]
  pKd: below the threshold
[19]; [28]
  pKd: below the threshold
[20]; [28]
  pKd: below the threshold
[21]; [28]
  pKd: below the threshold
[22]; [28]
  pKd: below the threshold
[23]; [28]
  pKd: below the threshold
[24]; [28]
  pKd: below the threshold
[25]; [28]
  pKd: below the threshold
[26]; [28]
  pKd: below the threshold
[27]; [28]
  pKd: below the threshold

B2: ACVR2A, P27037 (peptide)
chain: VDFPPKESSL
[1]; [29]
  pKd: 4.87
[2]; [29]
  pKd: 3.33
[3]; [29]
  pKd: below the threshold
[4]; [29]
  pKd: 4.7
[5]; [29]
  pKd: below the threshold
[6]; [29]
  pKd: below the threshold
[7]; [29]
  pKd: 3.75
[8]; [29]
  pKd: below the threshold
[9]; [29]
  pKd: below the threshold
[10]; [29]
  pKd: below the threshold
[11]; [29]
  pKd: below the threshold
[12]; [29]
  pKd: below the threshold
[13]; [29]
  pKd: 3.3
[14]; [29]
  pKd: below the threshold
[15]; [29]
  pKd: below the threshold
[16]; [29]
  pKd: below the threshold
[17]; [29]
  pKd: below the threshold
[18]; [29]
  pKd: below the threshold
[19]; [29]
  pKd: below the threshold
[20]; [29]
  pKd: 3.24
[21]; [29]
  pKd: below the threshold
[22]; [29]
  pKd: below the threshold
[23]; [29]
  pKd: below the threshold
[24]; [29]
  pKd: 3.61
[25]; [29]
  pKd: below the threshold
[26]; [29]
  pKd: below the threshold
[27]; [29]
  pKd: 3.82

B3: SLC2A1, P11166 (peptide)
chain: FHPLGADSQV
[1]; [29]
  pKd: 4.1
[2]; [29]
  pKd: below the threshold
[3]; [29]
  pKd: below the threshold
[4]; [29]
  pKd: below the threshold
[5]; [29]
  pKd: below the threshold
[6]; [29]
  pKd: below the threshold
[7]; [29]
  pKd: below the threshold
[8]; [29]
  pKd: below the threshold
[9]; [29]
  pKd: below the threshold
[10]; [29]
  pKd: below the threshold
[11]; [29]
  pKd: below the threshold
[12]; [29]
  pKd: below the threshold
[13]; [29]
  pKd: below the threshold
[14]; [29]
  pKd: below the threshold
[15]; [29]
  pKd: below the threshold
[16]; [29]
  pKd: below the threshold
[17]; [29]
  pKd: 3.49
[18]; [29]
  pKd: below the threshold
[19]; [29]
  pKd: below the threshold
[20]; [29]
  pKd: below the threshold
[21]; [29]
  pKd: below the threshold
[22]; [29]
  pKd: below the threshold
[23]; [29]
  pKd: below the threshold
[24]; [29]
  pKd: below the threshold
[25]; [29]
  pKd: below the threshold
[26]; [29]
  pKd: 3.49
[27]; [29]
  pKd: below the threshold

B4: HPV73-E6, Q82005 (peptide)
chain: SGSRPSATVV
[1]; [29]
  pKd: below the threshold
[2]; [29]
  pKd: 4.02
[3]; [29]
  pKd: below the threshold
[4]; [29]
  pKd: below the threshold
[5]; [29]
  pKd: below the threshold
[6]; [29]
  pKd: below the threshold
[7]; [29]
  pKd: 3.61
[8]; [29]
  pKd: below the threshold
[9]; [29]
  pKd: below the threshold
[10]; [29]
  pKd: below the threshold
[11]; [29]
  pKd: 4.98
[12]; [29]
  pKd: below the threshold
[13]; [29]
  pKd: 4.91
[14]; [29]
  pKd: below the threshold
[15]; [29]
  pKd: below the threshold
[16]; [29]
  pKd: 3.53
[17]; [29]
  pKd: below the threshold
[18]; [29]
  pKd: below the threshold
[19]; [29]
  pKd: below the threshold
[20]; [29]
  pKd: 3.48
[21]; [29]
  pKd: below the threshold
[22]; [29]
  pKd: 3.62
[23]; [29]
  pKd: below the threshold
[24]; [29]
  pKd: 4.7
[25]; [29]
  pKd: below the threshold
[26]; [29]
  pKd: 3.8
[27]; [29]
  pKd: 3.51

B5: OTULIN, Q96BN8 (peptide)
chain: PVRVCEETSL
[1]; [29]
  pKd: 5.01
[2]; [29]
  pKd: 3.95
[3]; [29]
  pKd: 4.59
[4]; [29]
  pKd: 5.23
[5]; [29]
  pKd: below the threshold
[6]; [29]
  pKd: below the threshold
[7]; [29]
  pKd: 3.95
[8]; [29]
  pKd: 3.78
[9]; [29]
  pKd: 4.09
[10]; [29]
  pKd: 5.14
[11]; [29]
  pKd: below the threshold
[12]; [29]
  pKd: 3.49
[13]; [29]
  pKd: 3.71
[14]; [29]
  pKd: below the threshold
[15]; [29]
  pKd: below the threshold
[16]; [29]
  pKd: below the threshold
[17]; [29]
  pKd: 3.7
[18]; [29]
  pKd: 4.4
[19]; [29]
  pKd: 3.81
[20]; [29]
  pKd: below the threshold
[21]; [29]
  pKd: below the threshold
[22]; [29]
  pKd: below the threshold
[23]; [29]
  pKd: 3.55
[24]; [29]
  pKd: 4.41
[25]; [29]
  pKd: below the threshold
[26]; [29]
  pKd: 3.79
[27]; [29]
  pKd: below the threshold
